Data published in PMC8413284.

Columns and labels:
[1] = target: recombinant human FcγRI (human) (UniProt P12314); assay: SPR
[2] = target: recombinant human FcγRIIIa (human) (UniProt P08637); assay: SPR; F158 allotype
[3] = target: recombinant human FcγRIIa (human) (UniProt P12318); assay: SPR; R131 allotype
[4] = target: rituximab hIgG1 μtp pre-formed hexamer (human); assay: negative stain electron microscopy; antibody 10 μg/ml on grids, 2% uranyl acetate, x80,000
[5] = target: rituximab hIgG1 μtp pre-formed hexamer (human); assay: SEC-MALS; 50 μg on Superdex 200 increase 10/300, PBS pH 7.4, 0.5 ml/minute; absolute molecular weight
[6] = target: rituximab hIgG1 μtp pre-formed hexamer (human); assay: SEC; SE-UHPLC after Protein A purification, against molecular weight controls; ACQUITY BEH200, 200 mM phosphate pH 7.0, 1 µg injected

UniProt P12314, sequence (P12314 16-292): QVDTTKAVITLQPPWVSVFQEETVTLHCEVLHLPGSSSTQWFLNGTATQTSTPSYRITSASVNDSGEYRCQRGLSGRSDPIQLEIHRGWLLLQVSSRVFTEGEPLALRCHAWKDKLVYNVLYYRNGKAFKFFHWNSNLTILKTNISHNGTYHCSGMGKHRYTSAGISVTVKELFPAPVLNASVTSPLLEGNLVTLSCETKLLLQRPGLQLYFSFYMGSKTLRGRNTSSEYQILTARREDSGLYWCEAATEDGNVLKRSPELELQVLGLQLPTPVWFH
UniProt P08637, sequence (P08637 17-208): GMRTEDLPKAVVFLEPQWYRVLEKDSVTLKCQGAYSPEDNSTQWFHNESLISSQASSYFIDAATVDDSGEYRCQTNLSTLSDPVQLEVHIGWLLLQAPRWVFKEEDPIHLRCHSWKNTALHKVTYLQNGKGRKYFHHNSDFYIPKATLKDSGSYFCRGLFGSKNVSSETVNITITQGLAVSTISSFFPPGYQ
UniProt P12318, sequence (P12318 34-217): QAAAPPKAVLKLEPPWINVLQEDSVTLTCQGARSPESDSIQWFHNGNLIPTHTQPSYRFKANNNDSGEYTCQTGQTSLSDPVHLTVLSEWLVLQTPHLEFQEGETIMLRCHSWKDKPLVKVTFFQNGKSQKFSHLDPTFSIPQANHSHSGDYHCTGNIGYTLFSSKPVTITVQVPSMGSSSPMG

Substance	Kd [1]	Kd [2]	Kd [3]	stoichiometry N [4]	stoichiometry N [5]	stoichiometry N [6]
rituximab hIgG1 wild-type	4.36 nM	719 nM	935 nM			
rituximab hIgG1 μtp pre-formed hexamer	7.53 nM	410 nM	964 nM			
rituximab hIgG1 μtp pre-formed hexamer (antibody)				6	6	6
